From the supplement of paper PMC6757056
± gives the standard deviation of the averaged measurements.

B1: library; a variant is named by its letters at N, in order (parent)
chain: GCUGUCACCGGUGUAUUACCCUAGUGGUCGACCGGUCUGAUGAGUCUNNNNNNAGACGAAACAGC

Assays:
hypoxanthine [1] = variants of: B1; assay: FACS-Seq fitted mean relative fluorescence mCherry/BFP without ligand (log10 relative fluorescence); ligand: hypoxanthine (xanthine aptamer); higher = higher reporter protein expression; settings: HEK293T, ligand present: no
Procedure, shortened: (§1)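 HEK293T libraries were lentivirally transduced with an mCherry reporter carrying the ribozyme switch and an EF1α-BFP marker, enriched, and incubated for 48 h with or without ligand before sorting into 6 bins by mCherry/BFP. Genomic DNA from each bin was PCR-amplified, barcoded and sequenced on MiSeq. Fluorescence is the fitted normal mean of the bin counts. The fit used log10(mCherry/BFP), and means were scaled to five spiked-in control ribozymes.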

hypoxanthine [2] = variants of: B1; assay: normalized RNA/DNA level with ligand (relative to sTRSVctl = 100) (log10 (% of sTRSVctl)); ligand: hypoxanthine (xanthine aptamer); higher = less ribozyme self-cleavage, higher mRNA level; settings: ligand concentration (+) RNA-Seq: 5 mM, HEK293T, reporter: mCherry (pCS4076), ligand present: yes
Procedure, shortened: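 RNA level was computed as RNA reads over DNA reads divided by a spiked-in non-cleaving sequence or by the top sequences, then scaled and log-transformed. Scaling was ×100 with log10, the top group was 25 sequences, and the threshold was ≥100 DNA reads. The reads came from HEK293T cells transfected at 4 µg per 6-well well with ribozyme switch library plasmids (mCherry, or eGFP in some ligand experiments). Total RNA was extracted with EDTA 72 h after transfection, with any ligand added 1 h before it.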

hypoxanthine [3] = variants of: B1; assay: normalized RNA/DNA level without ligand (relative to sTRSVctl = 100) (log10 (% of sTRSVctl)); ligand: hypoxanthine (xanthine aptamer); higher = less ribozyme self-cleavage, higher mRNA level; settings: HEK293T, reporter: mCherry (pCS4076), ligand present: no
Protocol: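 Hammerhead (sTRSV) ribozyme switch libraries with a ligand aptamer grafted on stem I and a randomized N4-6 loop II, cloned into the 3' UTR of mCherry and transiently transfected into HEK293T cells; RNA-Seq 72 h post transfection with ligand added 1 h before transfection; RNA read count / plasmid DNA read count normalized to the non-cleaving sTRSVctl (x100), log10; sequences with >100 DNA reads. FACS-Seq: lentiviral library sorted into 6 bins after 48 h ligand, log-normal fit mean of mCherry/BFP scaled to controls. Printed sequences are partial switch sequences.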

hypoxanthine [4] = variants of: B1; assay: FACS-Seq fitted mean relative fluorescence mCherry/BFP with ligand (log10 relative fluorescence); ligand: hypoxanthine (xanthine aptamer); ligand concentration (+) FACS-Seq: 5 mM; higher = higher reporter protein expression; settings: HEK293T, ligand present: yes
Procedure, shortened: as §1

Variant	FACS-Seq fitted mean (log10) (hypoxanthine [1])	normalized RNA/DNA level with ligand (log10) (hypoxanthine [2])	normalized RNA/DNA level without ligand (log10) (hypoxanthine [3])	FACS-Seq fitted mean (log10) (hypoxanthine [4])
GCGUGG	0.196 ± 0.064	1.6355 ± 0.0011	1.13 ± 0.019	0.684 ± 0.047
GCGUGA	0.278 ± 0.054	1.82 ± 0.048	1.4 ± 0.017	0.618 ± 0.062
GCGUGU	0.0904 ± 0.007	1.84 ± 0.049	1.42 ± 0.039	0.45 ± 0.049
GGAAUG	-0.159 ± 0.068	1.842 ± 0.0069	1.34 ± 0.03	-0.507 ± 0.2
GGAAUA	0.68 ± 0.044	1.9527 ± 0.00026	1.78 ± 0.028	0.588 ± 0.045
ACUAGA	0.305 ± 0.02	1.919 ± 0.0065	1.73 ± 0.032	0.429 ± 0.0044
ACUAGG	0.706 ± 0.049	1.8318 ± 0.00012	1.424 ± 0.009	0.657 ± 0.03
UCUGAA	0.338 ± 0.025	1.951 ± 0.0066	1.68 ± 0.04	0.512 ± 0.022
CCUAUA	0.827 ± 0.019	1.945 ± 0.016	1.83 ± 0.029	0.508 ± 0.074
CCUUGC	0.165 ± 0.04	1.95 ± 0.082	1.86 ± 0.027	-0.0481 ± 0.064
AGAAAU	0.552 ± 0.024	1.93 ± 0.036	1.83 ± 0.034	0.414 ± 0.021
AGAAAA	0.559 ± 0.023	1.89 ± 0.023	1.78 ± 0.048	0.133 ± 0.027
AGAAAC	0.541 ± 0.013	1.93 ± 0.055	1.796 ± 0.01	0.58 ± 0.023
UCUAGC	0.834 ± 0.0096	1.95 ± 0.023	1.85 ± 0.032	0.666 ± 0.062
UCUAGA	0.927 ± 0.07	1.91 ± 0.028	1.69 ± 0.056	0.0154 ± 0.086
CCUACA	0.617 ± 0.024	1.975 ± 0.01	1.9 ± 0.015	0.603 ± 0.01
GCUCUG	0.3 ± 0.0076	1.89 ± 0.045	1.32 ± 0.05	0.685 ± 0.024
UCUGUG	-0.545 ± 0.051	1.91 ± 0.052	1.706 ± 0.0071	-0.796 ± 0.03

Variant	FACS-Seq fitted mean (log10) (hypoxanthine [1])	normalized RNA/DNA level with ligand (log10) (hypoxanthine [2])	normalized RNA/DNA level without ligand (log10) (hypoxanthine [3])	FACS-Seq fitted mean (log10) (hypoxanthine [4])
ACGGGA	0.166 ± 0.0066	1.84 ± 0.024	1.371 ± 0.0073	0.623 ± 0.022
ACGGGU	0.0468 ± 0.038	1.79 ± 0.025	1.33 ± 0.07	0.569 ± 0.011
ACGGGG	-0.145 ± 0.048	1.81 ± 0.035	1.33 ± 0.058	0.5396 ± 0.0011
ACGGGC	0.13 ± 0.011	1.94 ± 0.035	1.79 ± 0.035	0.4948 ± 0.0031
ACUUCG	0.592 ± 0.03	1.9 ± 0.024	1.6 ± 0.1	0.766 ± 0.1
GCUCGG	0.247 ± 0.027	1.88 ± 0.074	1.4 ± 0.022	0.851 ± 0.056
GCUCGA	0.14 ± 0.0058	1.92 ± 0.02	1.67 ± 0.088	0.526 ± 0.025
GCUUUC	0.909 ± 0.14	1.959 ± 0.011	1.835 ± 0.016	0.723 ± 0.024
GCUUUA	0.789 ± 0.044	1.8872 ± 0.00046	1.93 ± 0.027	0.795 ± 0.071
GCUUUG	-0.186 ± 0.032	1.91 ± 0.048	1.56 ± 0.018	0.36 ± 0.05
GCUCAA	0.9407 ± 0.005	1.92 ± 0.041	1.71 ± 0.076	0.495 ± 0.11
ACGUAG	-0.209 ± 0.01	1.61 ± 0.021	1.16 ± 0.054	0.574 ± 0.028
ACGUAA	0.16 ± 0.018	1.86 ± 0.072	1.491 ± 0.0093	0.4284 ± 0.0027
UGAAAC	-0.0117 ± 0.11	1.91 ± 0.027	1.81 ± 0.059	0.2594 ± 0.0017
UCGUAG	0.444 ± 0.042	1.88 ± 0.031	1.5605 ± 0.0013	0.642 ± 0.051
CGAACC	0.676 ± 0.041	1.94 ± 0.035	1.89 ± 0.02	0.635 ± 0.062
GCUGGG	0.121 ± 0.13	1.94 ± 0.0053	1.55 ± 0.083	0.547 ± 0.091
GCUGGC	0.495 ± 0.075	1.85 ± 0.12	1.78 ± 0.038	0.468 ± 0.018
